Data published in patent publication US20110294982A1 (Ablynx, published 2011).
Changes are numbered by the printed parent chain.

B1: 140-F10 (VHH)
VHH: EVQLVESGGGSVQAGGSLRLSCAASQRTFSSDVMGWFRQAPGKERDFVAYIHRSGTTYYADSVKGRLTISRDNAKSTVYLQMNSLKPEDTAVYHCAAGRYGSTSDTLYDYWGQGTQVTVSS
B2: 140-B8 (VHH)
VHH: B1 VHH with S31R, I51S, L67F
B3: 140-A2 (VHH)
VHH: EVQLVESGGGLVQAGGSLRLSCAASGSTYRLNNMAWYRQSPGKKRELVALISGITSDPSTYYLDSVRGRFSISRDNALNTVYLQMNSLKPEDTAVYYCKQAWAGVEYWGQGTQVTVSS
B4: 140-E10 (VHH)
VHH: EVQLVESGGGLVQAGESLKLSCVASGNILRVTSMGWGRQIPGKQRKLVAWITNEGRTEYADSVKGRFTISRDNAQNTLYLLMNSLKPEDTAVYYCYGFSPRESSGNTYWGQGTQVTVSS
B5: 140-H10 (VHH)
VHH: EVPLVESGGGSVQAGGSLRLSCAASQRTFSRDVTGWFRQAPGKERDFVAYIHRSGETTYYADSVKGRFTISRDNAKSTVYLQMNSLKPEDTAVYHCAAGRYGSTSDTLYDYWGQGTQVTVSS
B6: VHH-H6 (VHH)
VHH: QVQLQDSGGGLVQAGGSLRLSCEASGRTFSSYAMGWFRQPPGKEREWVSTISRSGSAIYAYPVKGRFTMSRDNAKNTVYLEMNSLKPEDTAVFYCAAARSGVPSSRPTDYDYWGQGTQVTVSS
notes: Used with a Myc tag (captured/detected with anti-Myc 9E10) and a C-terminal His6 tag (detected with anti-HIS6 (C-term)); also called H6-VHH
B7: 140-H8 (VHH)
VHH: EVQLVESGGGLVQAGGSLRLSCAASISANAIDVVSWYRQAPGKPRELAASITSAGRIKYAESVKGRFGISRDNAKNTVSLQMNSLKPEDTAVYYCNALYRNAIYWGQGTQVTVSS
B8: 140-D4 (VHH)
VHH: EVQLVESGGGLVEAGGSLRLSCATSGSTFGIEAMAWYRQAPGKQRELVATINSASRTNYADSVKGRFTISRDTGKSILYLQMNNLEPEDTAVYYCKITTPLPYRRDFWGQGTQVTVSS
B9: 140-A10 (VHH)
VHH: EVQLVESGGGLVQPGGSLRLSCAASGFTFSRMAMGWYRQAPGVERDFLAIISPGGGTNYADSVKGRFTISRDNAKNTVYLQMNSLKPEDTAVYYCNARNFEGRRVDYWGQGTQVTVSS
B10: 140-A5 (VHH)
VHH: EVQLVESGGGSVQAGGSLRLSCAASGTTATITVPGWYRQAPGKQRELVAVINSGGTKKYADSVKGRFTISIDNVKRTLYLEMNSLRPEDTAVYYCSTLKYWGQGTQVTVSS
B11: 140-G8 (VHH)
VHH: EVQLVESGGGSVQAGGSLRLSCTASGSIFSINDMGWYRQPPGEQRELVATLTSSDSTKYADSVKSRFTISRDNAKNTVYLQMNSLKPEDTAVYYCNAVINRRGDGRNWSREYWGQGTQVTVSS

Legend:
[1] = target: T1, recombinant human alphavbeta6 (human, UniProt P06756 31-992; P18564 22-707, limits assumed); assay: specificity ELISA on coated integrins, periplasmic extract
T1 construct: Bought, carrier free (R&D Systems 3817-AV/CF); also called aVb6
T1 sequence (P06756 31-992 limits assumed, chain 1 of 2): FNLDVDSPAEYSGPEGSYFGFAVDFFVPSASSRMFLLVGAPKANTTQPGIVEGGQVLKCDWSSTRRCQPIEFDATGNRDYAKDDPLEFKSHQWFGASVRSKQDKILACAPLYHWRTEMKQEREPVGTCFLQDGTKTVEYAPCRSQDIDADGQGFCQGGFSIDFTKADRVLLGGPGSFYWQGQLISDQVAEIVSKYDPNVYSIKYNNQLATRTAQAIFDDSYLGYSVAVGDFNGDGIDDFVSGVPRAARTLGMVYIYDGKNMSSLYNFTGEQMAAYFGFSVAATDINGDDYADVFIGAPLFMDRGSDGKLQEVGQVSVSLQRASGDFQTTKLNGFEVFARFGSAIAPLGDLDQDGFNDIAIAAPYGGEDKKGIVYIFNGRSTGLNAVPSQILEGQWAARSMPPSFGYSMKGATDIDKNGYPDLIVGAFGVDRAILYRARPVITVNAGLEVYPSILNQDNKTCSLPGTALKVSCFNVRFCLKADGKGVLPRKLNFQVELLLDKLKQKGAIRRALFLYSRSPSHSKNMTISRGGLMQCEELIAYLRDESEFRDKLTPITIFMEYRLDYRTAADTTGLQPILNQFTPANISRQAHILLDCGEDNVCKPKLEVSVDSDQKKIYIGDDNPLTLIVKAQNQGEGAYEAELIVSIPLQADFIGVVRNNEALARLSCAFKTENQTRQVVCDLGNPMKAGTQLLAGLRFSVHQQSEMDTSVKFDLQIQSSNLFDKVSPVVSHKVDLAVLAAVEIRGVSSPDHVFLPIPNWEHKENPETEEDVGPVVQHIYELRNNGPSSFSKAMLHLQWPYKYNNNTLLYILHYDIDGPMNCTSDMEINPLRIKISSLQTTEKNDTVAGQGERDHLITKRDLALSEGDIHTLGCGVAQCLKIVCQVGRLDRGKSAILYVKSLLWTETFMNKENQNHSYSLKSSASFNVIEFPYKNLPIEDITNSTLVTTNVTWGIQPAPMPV
T1 sequence (P18564 22-707 limits assumed, chain 2 of 2): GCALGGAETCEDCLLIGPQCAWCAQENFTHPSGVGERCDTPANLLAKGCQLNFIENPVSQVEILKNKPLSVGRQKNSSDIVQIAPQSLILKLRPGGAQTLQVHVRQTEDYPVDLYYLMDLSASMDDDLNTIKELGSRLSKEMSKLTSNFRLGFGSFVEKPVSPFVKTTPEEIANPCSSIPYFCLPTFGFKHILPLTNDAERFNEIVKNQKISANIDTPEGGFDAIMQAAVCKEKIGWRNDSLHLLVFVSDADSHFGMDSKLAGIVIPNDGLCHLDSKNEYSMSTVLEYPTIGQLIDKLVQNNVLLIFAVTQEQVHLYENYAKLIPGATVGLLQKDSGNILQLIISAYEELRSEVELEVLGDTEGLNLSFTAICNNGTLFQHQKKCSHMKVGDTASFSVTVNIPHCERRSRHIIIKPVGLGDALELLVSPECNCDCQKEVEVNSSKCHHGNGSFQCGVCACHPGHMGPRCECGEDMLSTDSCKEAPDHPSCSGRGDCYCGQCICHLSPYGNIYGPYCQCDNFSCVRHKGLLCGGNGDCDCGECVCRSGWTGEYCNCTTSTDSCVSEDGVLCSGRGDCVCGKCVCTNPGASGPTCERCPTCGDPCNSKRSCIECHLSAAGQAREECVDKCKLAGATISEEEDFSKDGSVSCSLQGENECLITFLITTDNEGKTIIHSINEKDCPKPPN

[2] = target: T2, recombinant VLA-5 (α5β1 integrin) (UniProt P08648 42-995; P05556 21-728, limits assumed); assay: ELISA, integrin coated at 0.5 µg/well
T2 construct: also called α5β1 (VLA-5) integrin; a5β1 integrin
T2 sequence (P08648 42-995 limits assumed, chain 1 of 2): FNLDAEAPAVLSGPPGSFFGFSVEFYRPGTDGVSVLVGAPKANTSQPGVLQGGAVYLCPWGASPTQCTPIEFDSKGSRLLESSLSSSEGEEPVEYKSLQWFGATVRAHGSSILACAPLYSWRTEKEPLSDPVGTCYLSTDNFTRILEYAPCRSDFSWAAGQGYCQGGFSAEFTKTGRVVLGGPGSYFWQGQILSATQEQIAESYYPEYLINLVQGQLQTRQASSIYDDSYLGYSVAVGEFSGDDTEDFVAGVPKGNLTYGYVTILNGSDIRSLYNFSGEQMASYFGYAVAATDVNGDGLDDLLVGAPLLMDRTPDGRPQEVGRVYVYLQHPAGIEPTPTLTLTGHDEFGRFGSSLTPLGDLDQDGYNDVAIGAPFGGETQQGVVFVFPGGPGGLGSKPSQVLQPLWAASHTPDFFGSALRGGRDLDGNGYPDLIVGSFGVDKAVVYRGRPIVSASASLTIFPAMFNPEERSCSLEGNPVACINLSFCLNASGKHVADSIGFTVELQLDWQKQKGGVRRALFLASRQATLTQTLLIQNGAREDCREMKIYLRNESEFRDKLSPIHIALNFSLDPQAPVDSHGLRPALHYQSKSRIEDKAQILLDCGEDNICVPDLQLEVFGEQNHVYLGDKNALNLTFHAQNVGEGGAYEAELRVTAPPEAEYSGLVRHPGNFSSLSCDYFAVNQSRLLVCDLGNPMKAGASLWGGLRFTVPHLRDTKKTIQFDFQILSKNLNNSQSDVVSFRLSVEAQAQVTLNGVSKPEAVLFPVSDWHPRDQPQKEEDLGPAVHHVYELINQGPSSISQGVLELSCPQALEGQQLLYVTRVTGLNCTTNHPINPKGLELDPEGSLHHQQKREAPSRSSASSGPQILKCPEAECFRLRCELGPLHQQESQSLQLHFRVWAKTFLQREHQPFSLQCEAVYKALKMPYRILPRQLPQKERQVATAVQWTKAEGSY
T2 sequence (P05556 21-728 limits assumed, chain 2 of 2): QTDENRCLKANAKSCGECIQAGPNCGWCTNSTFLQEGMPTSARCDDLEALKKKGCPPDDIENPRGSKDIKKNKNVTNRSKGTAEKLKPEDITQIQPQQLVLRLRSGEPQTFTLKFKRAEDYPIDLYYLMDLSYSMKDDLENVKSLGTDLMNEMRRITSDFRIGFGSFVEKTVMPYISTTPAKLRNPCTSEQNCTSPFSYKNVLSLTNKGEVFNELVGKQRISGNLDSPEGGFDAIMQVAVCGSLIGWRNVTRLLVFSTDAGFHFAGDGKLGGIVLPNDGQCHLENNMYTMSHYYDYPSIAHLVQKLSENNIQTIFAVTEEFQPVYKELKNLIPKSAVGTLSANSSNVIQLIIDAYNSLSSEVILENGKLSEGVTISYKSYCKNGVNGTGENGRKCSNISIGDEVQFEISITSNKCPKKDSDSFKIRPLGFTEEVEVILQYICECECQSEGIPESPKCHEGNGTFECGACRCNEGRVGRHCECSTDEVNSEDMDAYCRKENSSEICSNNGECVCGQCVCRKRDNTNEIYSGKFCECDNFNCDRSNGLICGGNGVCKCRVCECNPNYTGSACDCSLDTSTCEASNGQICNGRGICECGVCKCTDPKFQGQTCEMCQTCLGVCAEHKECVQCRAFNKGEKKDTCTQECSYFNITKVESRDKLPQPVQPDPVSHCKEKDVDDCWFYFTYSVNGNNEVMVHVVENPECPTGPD
Experimental: FIG. 3: Direct binding of VHH-H6 to recombinant α3β1 integrin. Recombinant VLA-3 (α3β1 integrin) or recombinant VLA-5 (a5β1 integrin) were coated into Maxisorb plates at 0.5 μg/well, and binding with VHH-H6 or no VHH (in which anti-Myc was used) was assayed in ELISA. Binding of the VHHs to the integrins is expressed as absorbance at 450 nm. Data represents the mean±standard deviation of three independent experiments

Binder	binding result [1]	binding result [2]
B1	binds	–
B2	binds	–
B3	binds	–
B4	binds	–
B5	binds	–
B6	–	no binding
B7	binds	–
B8	binds	–
B9	binds	–
B10	binds	–
B11	binds	–
